Measured values reported in patent US20150344570A1 (published 2015).
Residue numbers refer to the chain shown, from its start. Read-outs that look alike come from different tables or passages of the source.

T1: FcgRIIa R type extracellular domain, C-terminal His tag (human, UniProt P12318 34-217)
T1 construct: extracellular domain; Soluble analyte in Biacore; also called FcγRIIa R; FcγRIIa(R); not shown: His tag at the C terminus
T1 sequence (looked up): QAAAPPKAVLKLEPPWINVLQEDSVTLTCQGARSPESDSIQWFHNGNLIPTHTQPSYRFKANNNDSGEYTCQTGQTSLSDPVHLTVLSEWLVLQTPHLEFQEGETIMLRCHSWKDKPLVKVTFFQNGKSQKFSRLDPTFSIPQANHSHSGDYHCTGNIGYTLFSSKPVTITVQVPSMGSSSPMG

T2: FcgRIIb extracellular domain, C-terminal His tag (human, UniProt P31994 43-217)
T2 construct: extracellular domain; Soluble analyte in Biacore; also called FcγRIIb; not shown: His tag at the C terminus
T2 sequence (looked up): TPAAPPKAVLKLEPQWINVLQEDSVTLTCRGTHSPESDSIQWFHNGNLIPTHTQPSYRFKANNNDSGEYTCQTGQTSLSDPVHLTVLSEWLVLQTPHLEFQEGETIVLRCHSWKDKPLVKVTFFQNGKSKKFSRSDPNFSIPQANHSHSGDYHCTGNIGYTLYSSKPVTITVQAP

T3: FcgRIIa H type extracellular domain, C-terminal His tag (human, UniProt P12318 34-217)
T3 construct: extracellular domain; Soluble analyte in Biacore; also called FcγRIIa H; FcγRIIa(H); not shown: His tag at the C terminus
T3 sequence (looked up): T1 sequence (looked up) with R134H

B1: H240-Kn120/H240-Hl068/L73-k0 (antibody, human IgG1, kappa)
heavy 1: QDQLVQSGAEVKKPGASVKVSCKASGFNIKDTYIQWVRQAPGQGLEWMGRIDPLRKQTKYREKFEGRVTITADTSTNTAYMELSSLRSEDTAVYYCVRSGREFDYWGQGTLVTVSSASTKGPSVFPLAPSSKSTSGGTAALGCLVKDYFPEPVTVSWNSGALTSGVHTFPAVLQSSGLYSLSSVVTVPSSSLGTQTYICNVNHKPSNTKVDKKVEPKSCDKTHTCPPCPAPEYYWGPMVFLFPPKPKDTLMISRTPEVTCVVVDVSDEDPEVKFNWYVDGVEVHNAKTKPREEQYNATYRVVSVLTVLHQDWLNGKEYKCKVSNKDLPAPIEKTISKAKGQPREPQVCTLPPSRDELTKNQVSLWCLVKGFYPSDIAVEWESNGQPENNYKTTPPVLDSDGSFFLYSKLTVDKSRWQQGNVFSCSVMHEALHNHYTQKSLSLSP
heavy 2: QDQLVQSGAEVKKPGASVKVSCKASGFNIKDTYIQWVRQAPGQGLEWMGRIDPLRKQTKYREKFEGRVTITADTSTNTAYMELSSLRSEDTAVYYCVRSGREFDYWGQGTLVTVSSASTKGPSVFPLAPSSKSTSGGTAALGCLVKDYFPEPVTVSWNSGALTSGVHTFPAVLQSSGLYSLSSVVTVPSSSLGTQTYICNVNHKPSNTKVDKKVEPKSCDKTHTCPPCPAPELLGGPSVFLFPPKPKDTLMISRTPEVTCVVVDVSHEEPEVKFNWYVDGVEVHNAKTKPREEQYNSTYRVVSVLTVLHQDWLNGKEYKCKVSNDALPKPIEETISKAKGQPREPQVYTLPPSRCELTKNQVSLSCAVKGFYPSDIAVEWESNGQPENNYKTTPPVLDSDGSFFLVSKLTVDKSRWQQGNVFSCSVMHEALHNHYTQKSLSLSP
light: DIQMTQSPSSLSASVGDRVTITCRASQDIHKYIAWYQQKPGQAPRLLIQYTSTLQPGVPSRFSGSGSGTDYTFTISSLQPEDIATYYCLQYEQLRTFGGGTKVEIKRTVAAPSVFIFPPSDEQLKSGTASVVCLLNNFYPREAKVQWKVDNALQSGNSQESVTEQDSKDSTYSLSSTLTLSKADYEKHKVYACEVTHQGLSSPVTKSFNRGEC
notes: Heterodimerized (knobs-into-holes) anti-epiregulin IgG1 antibody; also called H240-Kn120/H240-HI068/L73-k0
B2: H240-Kn120/H240-Hl086/L73-k0 (antibody, human IgG1, kappa)
heavy 1: B1 heavy 1
heavy 2: B1 heavy 2 with G235I
light: B1 light
notes: also called H240-Kn120/H240-HI086/L73-k0
B3: H240-Kn120/H240-Hl085/L73-k0 (antibody, human IgG1, kappa)
heavy 1: B1 heavy 1
heavy 2: B1 heavy 2 with G235V
light: B1 light
notes: also called H240-Kn120/H240-HI085/L73-k0
B4: H240-Kn120/H240-Hl073/L73-k0 (antibody, human IgG1, kappa)
heavy 1: B1 heavy 1
heavy 2: B1 heavy 2 with G235S
light: B1 light
notes: also called H240-Kn120/H240-HI073/L73-k0
B5: H240-Kn120/H240-Hl089/L73-k0 (antibody, human IgG1, kappa)
heavy 1: B1 heavy 1
heavy 2: B1 heavy 2 with G235T
light: B1 light
notes: also called H240-Kn120/H240-HI089/L73-k0
B6: H240-Kn179/H240-Hl068/L73-k0 (antibody, human IgG1, kappa)
heavy 1: B1 heavy 1 with E293K
heavy 2: B1 heavy 2
light: B1 light
notes: also called H240-Kn179/H240-HI068/L73-k0
B7: H240-Kn180/H240-Hl068/L73-k0 (antibody, human IgG1, kappa)
heavy 1: B1 heavy 1 with E293R
heavy 2: B1 heavy 2
light: B1 light
notes: also called H240-Kn180/H240-HI068/L73-k0

Assays:
Experiment in all cases: SPR (Biacore); KD of H240-Kn120/H240-Hl068/L73-k0 divided by KD of the variant
[1] = target: T1, FcgRIIa R type extracellular domain, …
Procedure: (§1) H240-Kn179/H240-H1089/L73-k0, H240-Kn180/H240-Hl089/L73-k0, H240-Kn192/H240-Hl204/L73-k0, and H240-Kn193/H240-Hl204/L73-k0 were prepared by combining each of H240-Kn192 and H240-Kn193 as an H chain, L73-k0 as the L chain, and H240-Hl089 and H240-Hl204 as the other H chain according to the method described in Reference Example 1. The variants described above were assessed for their binding to FcγR according to the method described in Reference Example 8.
(§2) Analysis of interaction between objective antibody and the FcγR was carried out using Biacore T100 (GE Healthcare), Biacore T200, Biacore A100, and Biacore 4000. HBS-EP+ (GE Healthcare) was used as the running buffer, and the measurement temperature was set to 25° C. Chips produced by immobilizing the antigen peptide by the amine coupling method to a Series S sensor Chip CM5 (GE Healthcare), chips produced by allowing preliminarily biotinylated antigen peptides to interact with and immobilize onto a Series S Sensor Chip SA (certified) (GE Healthcare), chips produced by immobilizing Protein L (ACTIGEN, BioVision) to Series S Sencor Chip CM5 (GE Healthcare), or chips produced by immobilizing Protein A/G (Thermo Scientific) to Series S Sencor Chip CM5 (GE Healthcare) were used. Antibodies of interest were captured onto these chips, and allowed to interact to each FcγR diluted with running buffer. To regenerate and repeatedly use the chip, the antibodies captured onto the chip were washed off by reacting 10 mM glycine-HCl, pH 1.5.

[2] = target: T4, FcgRIIIa V type extracellular domain, C-terminal His tag (human, UniProt P08637 17-208)
T4 construct: extracellular domain; Soluble analyte in Biacore; also called FcγRIIIa V; not shown: His tag at the C terminus
T4 sequence (P08637 17-208 F176V): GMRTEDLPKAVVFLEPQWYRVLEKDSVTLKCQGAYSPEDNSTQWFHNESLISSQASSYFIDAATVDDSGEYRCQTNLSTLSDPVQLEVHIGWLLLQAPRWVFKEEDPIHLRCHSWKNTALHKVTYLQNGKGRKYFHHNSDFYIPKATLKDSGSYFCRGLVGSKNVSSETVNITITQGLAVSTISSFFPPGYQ
Procedure: as §1, §2

[3] = target: T2, FcgRIIb extracellular domain, …
Procedure: as §1, §2

[4] = target: T3, FcgRIIa H type extracellular domain, …
Procedure: as §1, §2

[5] = target: T5, FcgRIIIa F type extracellular domain, C-terminal His tag (human, UniProt P08637 17-208)
T5 construct: extracellular domain; Soluble analyte in Biacore; also called FcγRIIIa F; not shown: His tag at the C terminus
T5 sequence (P08637 17-208): as the sequence (P08637 17-208 F176V) above, with V160F counted along it
Procedure: as §1, §2

[6] = target: T1, FcgRIIa R type extracellular domain, …; remark: listed apart in the source
Procedure: as §2

[7] = target: T4, FcgRIIIa V type extracellular domain, …; remark: listed apart in the source
Procedure: as §2

[8] = target: T2, FcgRIIb extracellular domain, …; remark: listed apart in the source
Procedure: as §2

[9] = target: T3, FcgRIIa H type extracellular domain, …; remark: listed apart in the source
Procedure: as §2

[10] = target: T5, FcgRIIIa F type extracellular domain, …; remark: listed apart in the source
Procedure: as §2

Row | Binder | relative KD [1] | relative KD [2] | relative KD [3] | relative KD [4] | relative KD [5] | relative KD [6] | relative KD [7] | relative KD [8] | relative KD [9] | relative KD [10]
1 | B1 | 1 | 1 | 1 | 1 | 1 | 1 | 1 | 1 | 1 | 1
2 | B2 |  |  |  |  |  | 0.9 | 0 | 0.3 | 0.8 | 0.1
3 | B3 |  |  |  |  |  | 1.1 | 0.1 | 0.4 | 0.9 | 0.1
4 | B4 |  |  |  |  |  | 1.3 | 0.2 | 0.7 | 2 | 0.3
5 | B5 | 1.4 | 0.1 | 0.8 | 1 | 0.2 | 1.4 | 0.1 | 0.8 | 1 | 0.2
6 | B6 | 0.8 | 0.4 | 0.6 | 1 | 0.5 | 0.8 | 0.4 | 0.6 | 1 | 0.5
7 | B7 | 1 | 0.5 | 0.6 | 1.2 | 0.7 | 1 | 0.5 | 0.6 | 1.2 | 0.7
